Starred links: 1 amine or outer side, 2 acyl side, 3 side chain; linkers in the order of their positions; H or OH if unused. Positions of bridges follow the written chain, without caps; N, C: chain ends. Non-standard residues stand in square brackets, D forms with d. Primed or numbered codes have the meaning given here. *: point of attachment. B5(10) = 2-amino-2-(pent-4-en-1-yl)hept-6-enoic acid, bis(4-pentenyl)glycine, stitching residue bearing both staples, C=CCCCC(CCCC=C)(N[*:1])C(=O)[*:2]; PyrS2″ = (S)-3-amino-1-((pent-4-en-1-yloxy)carbonyl)pyrrolidine-3-carboxylic acid (stapling residue), C=CCCCOC(=O)N1CC[C@@](N[*:1])(C(=O)[*:2])C1; B5(4) = 2,2-bis(4-pentenyl)glycine = 2-amino-2-(pent-4-en-1-yl)hept-6-enoic acid (stitching residue), C=CCCCC(CCCC=C)(N[*:1])C(=O)[*:2]; TfeGA = (S)-2-amino-3-((carboxymethyl)(2,2,2-trifluoroethyl)amino)propanoic acid, O=C([C@H](CN(CC(=O)[*:3])CC(F)(F)F)N[*:1])[*:2]; PyrS2 = (S)-3-amino-1-((pent-4-en-1-yloxy)carbonyl)pyrrolidine-3-carboxylic acid, C=CCCCOC(=O)N1CC[C@@](N[*:1])(C(=O)[*:2])C1; TriAzDap = Dap whose side chain is a 1H-1,2,3-triazol-1-yl bearing the bracketed 4-substituent; B5(3) = 2,2-bis(4-pentenyl)glycine (stitching residue), C=CCCCC(CCCC=C)(N[*:1])C(=O)[*:2]; Phe(3-COOH) = N[C@@H](Cc1cccc(C(=O)O)c1)C(=O)O; 2F3MeF = Cc1cccc(C[C@H](N[*:1])C(=O)[*:2])c1F; Phe(2-CF3) = N[C@@H](Cc1ccccc1C(F)(F)F)C(=O)O; Phe(2-Cl) = N[C@@H](Cc1ccccc1Cl)C(=O)O; Bta = N[C@@H](Cc1csc2ccccc12)C(=O)O; αAllylPro = C=CC[C@@]1(C(=O)O)CCCN1; tBuAla = CC(C)(C)C[C@H](N)C(=O)O; 3Thi = N[C@@H](Cc1ccsc1)C(=O)O; S8 = C=CCCCCCC[C@](C)(N)C(=O)O; PyrS2(4) = not defined here; CMe2CO2H = CC(C)(C(=O)O)*; hSer = N[C@@H](CCO)C(=O)O; Abu = CC[C@H](N)C(=O)O; Aib = CC(C)(N)C(=O)O
How the values were obtained:
[1] = biological target: T1, Bcat-Halo (beta-catenin HaloTag construct transfected into HEK293 cells) (UniProt P35222 1-781); assay: cell-based or functional assay
T1 sequence (looked up): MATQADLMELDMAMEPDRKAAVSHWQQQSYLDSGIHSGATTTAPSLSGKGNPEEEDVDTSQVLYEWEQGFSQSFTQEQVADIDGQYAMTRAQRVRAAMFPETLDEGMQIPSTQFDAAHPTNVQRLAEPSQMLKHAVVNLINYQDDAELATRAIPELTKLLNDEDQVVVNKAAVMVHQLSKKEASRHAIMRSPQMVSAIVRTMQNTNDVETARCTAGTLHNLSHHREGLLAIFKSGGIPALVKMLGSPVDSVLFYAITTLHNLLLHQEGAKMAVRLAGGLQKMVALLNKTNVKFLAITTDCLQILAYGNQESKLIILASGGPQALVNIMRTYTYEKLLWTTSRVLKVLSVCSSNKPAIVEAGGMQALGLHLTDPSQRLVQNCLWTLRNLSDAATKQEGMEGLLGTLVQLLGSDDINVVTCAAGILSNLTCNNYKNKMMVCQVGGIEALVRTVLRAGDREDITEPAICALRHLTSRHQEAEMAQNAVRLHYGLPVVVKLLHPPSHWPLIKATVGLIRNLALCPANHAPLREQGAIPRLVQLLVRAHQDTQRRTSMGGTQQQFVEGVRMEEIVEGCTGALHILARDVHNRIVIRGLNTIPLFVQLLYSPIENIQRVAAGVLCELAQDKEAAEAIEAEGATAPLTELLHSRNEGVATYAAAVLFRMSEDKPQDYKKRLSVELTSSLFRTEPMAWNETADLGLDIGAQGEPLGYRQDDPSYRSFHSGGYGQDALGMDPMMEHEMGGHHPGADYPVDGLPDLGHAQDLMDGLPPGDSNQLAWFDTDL

[2] = biological target: T2, beta-catenin in DLD1 TCF/LEF luciferase reporter cells (UniProt P35222 1-781); assay: cell-based or functional assay
T2 sequence (looked up): T1 sequence (looked up)

[3] = biological target: T3, B-cat-Halo (UniProt P35222 1-781, HaloTag NanoBRET 618 Ligand bound in the assay); assay: NanoBRET Abs IC50 in HEK293 cells; B-cat-Halo, competitor TCF4-Luc
T3 construct: Transfected into HEK293 cells for the NanoBRET assay; also called beta-catenin HaloTag NanoBRET construct; not shown: HaloTag
T3 sequence (looked up): T1 sequence (looked up)

[4] = biological target: T4, full-length beta-Catenin (Uniprot ID P35222) (Homo sapiens (Human), UniProt P35222 1-781); assay: fluorescence polarization competition; full-length beta-catenin, competitor 5FAM-TCF4(10-53) probe
T4 construct: also called bCat; B-Catenin
T4 sequence: T1 sequence (looked up)
In short: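 Data fitted to 1:1 binding model with hill slope from duplicate reads taken after 60 minutes at 20° C. in the dark.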

[5] = biological target: T5, beta-catenin in DLD1 TCF/LEF luciferase reporter cells (Homo sapiens (Human), UniProt P35222 1-781); assay: cell-based or functional assay
T5 sequence: T1 sequence (looked up)

[6] = biological target: T6, full-length beta-Catenin (Uniprot ID P35222) (Homo sapiens (Human), UniProt P35222 1-781); assay: fluorescence polarization competition; full-length beta-catenin + 5FAM-TCF4(10-53) probe
T6 construct: also called bCat; B-Catenin
T6 sequence: T1 sequence (looked up)
Procedure: The plate was incubated protected from light for 60 minutes at 20° C. prior to read. Reads were performed on a CLARIOstar plate reader (BMG Labtech) in duplicate, and data were fitted to a 1:1 binding model with hill slope using an in-house script. All provided concentrations are final concentrations.

[7] = biological target: T7, beta-catenin in DLD1 TCF/LEF luciferase reporter cells (UniProt P35222 1-781); assay: cell-based or functional assay; remark: listed apart in the source
T7 sequence (looked up): T1 sequence (looked up)

[8] = biological target: T8, beta-catenin in DLD1 TCF/LEF luciferase reporter cells (UniProt P35222 1-781); assay: cell-based or functional assay; remark: listed apart in the source
T8 sequence (looked up): T1 sequence (looked up)

[9] = biological target: T9, beta-catenin in DLD1 TCF/LEF luciferase reporter cells (UniProt P35222 1-781); assay: cell-based or functional assay; remark: listed apart in the source
T9 sequence (looked up): T1 sequence (looked up)

[10] = biological target: T10, B-cat-Halo (beta-catenin HaloTag NanoBRET construct expressed in HEK293 cells) (UniProt P35222 1-781); assay: cell-based or functional assay
T10 sequence (looked up): T1 sequence (looked up)

## Ac-[αAllylPro]D[tBuAla][B5(4)]D[TfeGA]AAFL[PyrS2][3Thi][Bta]Q-NH2 (staple 1-4, 4-11) [I-1461]
[1]
  NanoBRET Abs IC50: 3700 nM
[2]
  DLD1 4% Abs IC50: 1700 nM

B1: I-749 (peptide)
peptide: XDLXDEAAFNXFXT
modifications: not fully specified; N-terminal Ac; C-terminal NH2; PL3 at 1, B5 at 4, S8 at 11, BztA at 13; stapled PL3-B5 and B5-S8 by olefin metathesis
notes: Stapled peptide; also called Ac-PL3-Asp-Leu-B5-Asp-Glu-Ala-Ala-Phe-Asn-S8-Phe-BztA-Thr-NH2
[3]
  IC50: 9000 nM
[4]
  IC50: 40 nM

## Ac-[αAllylPro]D[tBuAla][B5(4)]DDAAFT[PyrS2″][Phe(2-Cl)][Bta]S-NHEt (staple 1-4, 4-11) [I-1244]
[5]
  DLD1 4% Abs IC50: 15900 nM

B2: I-1287 (peptide)
peptide: Ac-[αAllylPro]NA[B5(10)]DTAAFL[PyrS2]F[Bta]Q-NH2
modifications: staple 1-4, 4-11; not fully specified; printed as Ac-PL3-Asn-Ala-B5-Asp-Thr-Ala-Ala-Phe-Leu-PyrS2-Phe-BztA-Gln-NH2
[6]
  EC50: 10000 nM

## Ac-[αAllylPro]D[tBuAla][B5(3)]D[TfeGA]AAF[hSer][S8][Phe(2-Cl)][Bta]Q-NH2 (staple 1-4, 4-11) [I-996]
[7]
  DLD1 reporter assay Abs IC50: 10800 nM

B3: I-1296 (peptide)
peptide: Ac-[αAllylPro]DA[B5(10)]NTAAFL[PyrS2]F[Bta]Q-NH2
modifications: staple 1-4, 4-11; not fully specified; printed as Ac-PL3-Asp-Ala-B5-Asn-Thr-Ala-Ala-Phe-Leu-PyrS2-Phe-BztA-Gln-NH2
[6]
  EC50: 3780 nM

## Ac-[αAllylPro]D[tBuAla][B5(3)]D[TriAzDap](CH2CMe2CO2H)AAFL[PyrS2″][Phe(2-CF3)][Bta]S-NH2 (staple 1-4, 4-11) [I-2372]
[8]
  DLD1 4% Abs IC50: 2100 nM

B4: I-1286 (peptide)
peptide: Ac-[αAllylPro]NA[B5(10)]DTAAFL[PyrS2]F[Bta]Q-NH2
modifications: staple 1-4, 4-11; not fully specified; printed as Ac-PL3-Asn-Ala-B5-Asp-Thr-Ala-Ala-Phe-Leu-PyrS2-Phe-BztA-Gln-NH2
[6]
  EC50: 10000 nM

## Ac-[αAllylPro]D[tBuAla][B5(3)]D[TfeGA]AAFL[PyrS2″][3Thi][Bta][Me2Gln]A-NH2 (staple 1-4, 4-11) [Ac-PL3-Asp-Npg-B5-Asp-TfeGA-Ala-Ala-Phe-Leu-PyrS2-3Thi-BztA-Me2Gln-Ala-NH2]
[9]
  DLD1 4% Abs IC50: 1400 nM
[10]
  NanoBRET Abs IC50: 2500 nM

## Ac-[αAllylPro]D[tBuAla][B5(3)]D[Phe(3-COOH)]AAFL[PyrS2″][Phe(2-CF3)][Bta]QLA-NH2 (staple 1-4, 4-11) [I-2378]
[8]
  DLD1 4% Abs IC50: 1000 nM

B5: I-1466 (peptide)
peptide: Ac-[αAllylPro]D[tBuAla][B5(4)]D[Phe(3-COOH)]AAFL[PyrS2(4)][2F3MeF][Bta]Q-NH2
modifications: staple 1-4, 4-11; not fully specified; printed as Ac-PL3-Asp-Npg-B5-Asp-3COOHF-Ala-Ala-Phe-Leu-PyrS2-2F3MeF-BztA-Gln-NH2; reading uncertain
[2]
  DLD1 4% Abs IC50: 700 nM

B6: I-1295 (peptide)
peptide: Ac-[αAllylPro]DA[B5(10)]NTAAFL[PyrS2]F[Bta]Q-NH2
modifications: staple 1-4, 4-11; not fully specified; printed as Ac-PL3-Asp-Ala-B5-Asn-Thr-Ala-Ala-Phe-Leu-PyrS2-Phe-BztA-Gln-NH2
[6]
  EC50: 10000 nM

## Ac-[αAllylPro]D[tBuAla][B5(3)]D[TriAzDap](CMe2CO2H)AAFL[PyrS2″][Phe(2-CF3)][Bta]S-NH2 (staple 1-4, 4-11) [I-2374]
[8]
  DLD1 4% Abs IC50: 2600 nM

## Ac-[αAllylPro]D[tBuAla][B5(3)]D[Phe(3-COOH)][Aib]AF[Abu][PyrS2″][3Thi][Bta][Me2Gln]A-NH2 (staple 1-4, 4-11) [Ac-PL3-Asp-Npg-B5-Asp-3COOHF-Aib-Ala-Phe-Abu-PyrS2-3Thi-BztA-Me2Gln-Ala-NH2]
[9]
  DLD1 4% Abs IC50: 600 nM
[10]
  NanoBRET Abs IC50: 2300 nM
